Results from article PMC10308451.

Biological target: T1, EhDbr1 (RNA lariat debranching enzyme) (Entamoeba histolytica, UniProt C4M1P9 1-354)
T1 sequence: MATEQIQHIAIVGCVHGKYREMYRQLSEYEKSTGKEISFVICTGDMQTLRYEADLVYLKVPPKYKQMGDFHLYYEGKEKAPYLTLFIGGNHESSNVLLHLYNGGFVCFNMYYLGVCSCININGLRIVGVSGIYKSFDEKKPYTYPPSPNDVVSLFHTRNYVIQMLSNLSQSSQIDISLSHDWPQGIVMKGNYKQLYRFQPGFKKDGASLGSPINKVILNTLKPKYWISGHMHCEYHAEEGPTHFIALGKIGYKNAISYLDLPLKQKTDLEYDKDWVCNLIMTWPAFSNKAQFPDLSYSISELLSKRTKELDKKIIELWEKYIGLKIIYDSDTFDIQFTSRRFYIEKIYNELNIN
Assay: X-ray crystallography

B1: PS-bRNA-1 5' product (hydrolyzed 2'-5' fragment, 5'-PS-GUGUG-3') (ssRNA)
RNA: GUGUG
modifications: 5'-terminal phosphorothioate
binding result: binds
